Experimental data: PMC8402544

Target: Aedes aegypti membrane-bound alkaline phosphatase (Aa-mALP), 54 kDa His(6)-tagged (Aedes aegypti)
Test: ELISA; sandwich ELISA; Aa-mALP (2.5 µg) coated on 96-well plates in 50 mM carbonate buffer pH 9.0; ligands at 100, 200, 300 and 400 nM, 37 °C, 2 h; detected with rabbit anti-Cry4Ba antibodies and HRP anti-rabbit IgG; apparent Kd; relative binding with Wt-R203Q set at 100%

For “21 kDa isolated Cry4Ba-DIII fragment (domain or fragment)”, the Kd was 110 nM.
“65 kDa Cry4Ba-R203Q full-length (trypsin-activated) toxin (natural protein)” was tested, and the Kd was 80 nM.
